Reference: US20020151463A1
Each block holds one substance with its values, some of them ahead of it.

What was measured:
[1] = target: HEK-293 clones transfected with hMC1R, hMC3R or hMC5R; test: radioligand binding with 125I-NDP-α-MSH on transfected HEK-293 clones
[2] = target: murine MSH receptor (mouse) (UniProt Q01727); test: competition binding of cold ACTH against 125I-ACTH1-39 on Cloudman M-3 melanoma cells
[3] = target: rat MC3-R (rat) (UniProt P32244); test: cell-based or functional assay
rat MC3-R (rat), sequence (P32244 whole entry): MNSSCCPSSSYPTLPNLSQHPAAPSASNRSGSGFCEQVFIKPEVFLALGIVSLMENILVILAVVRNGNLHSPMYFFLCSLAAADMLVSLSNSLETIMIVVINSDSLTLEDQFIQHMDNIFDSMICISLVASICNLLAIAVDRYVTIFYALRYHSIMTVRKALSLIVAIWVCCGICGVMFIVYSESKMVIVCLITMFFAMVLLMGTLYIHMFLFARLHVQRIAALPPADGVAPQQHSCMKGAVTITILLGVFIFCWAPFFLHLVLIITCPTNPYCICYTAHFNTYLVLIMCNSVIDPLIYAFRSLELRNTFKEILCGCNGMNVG

adrenocorticotropic hormone (unlabelled) (peptide), sequence (P01189 138-176): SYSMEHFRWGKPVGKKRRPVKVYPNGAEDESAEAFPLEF
murine MSH receptor (mouse), sequence (Q01727 whole entry): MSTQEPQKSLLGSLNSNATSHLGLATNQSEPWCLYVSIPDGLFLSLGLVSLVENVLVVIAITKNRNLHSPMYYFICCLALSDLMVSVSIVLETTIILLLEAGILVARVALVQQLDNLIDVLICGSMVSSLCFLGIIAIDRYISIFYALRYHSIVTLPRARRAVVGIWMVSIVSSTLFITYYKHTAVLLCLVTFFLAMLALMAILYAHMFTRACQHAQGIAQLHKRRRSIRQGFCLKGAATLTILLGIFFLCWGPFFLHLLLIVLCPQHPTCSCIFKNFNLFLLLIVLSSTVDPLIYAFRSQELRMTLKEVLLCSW

Ki [1]: 0.11 to 0.58 nM
Substance: 125I-labeled Nle,D-Phe (NDP)-α-MSH (from UniProt P01189 138-150) (peptide)

Kd [2]: 63 nM
Substance: adrenocorticotropic hormone (unlabelled) (peptide)

EC50 for adenylyl cyclase activation, rat MC3-R in 293 cells, α-MSH alone [3]: 4.2 nM
EC50 for adenylyl cyclase activation, rat MC3-R in 293 cells, α-MSH plus 0.7 nM murine agouti [3]: 4.1 nM
Substance: α-melanocyte-stimulating hormone (from UniProt P01189 138-150) (peptide)
